Source: patent US20250084434A1 (KRIYA THERAPEUTICS, published 2025)

Biological target: IGF-1R, endogenous, on cultured cells (HT-1080, Colo205, peripheral blood fibrocytes) (human, UniProt P08069 31-1367)
Experiment: cell-based or functional assay

Sequence of IGF-1R, endogenous, on cultured cells (HT-1080, Colo205, peripheral blood fibrocytes) (P08069 31-1367): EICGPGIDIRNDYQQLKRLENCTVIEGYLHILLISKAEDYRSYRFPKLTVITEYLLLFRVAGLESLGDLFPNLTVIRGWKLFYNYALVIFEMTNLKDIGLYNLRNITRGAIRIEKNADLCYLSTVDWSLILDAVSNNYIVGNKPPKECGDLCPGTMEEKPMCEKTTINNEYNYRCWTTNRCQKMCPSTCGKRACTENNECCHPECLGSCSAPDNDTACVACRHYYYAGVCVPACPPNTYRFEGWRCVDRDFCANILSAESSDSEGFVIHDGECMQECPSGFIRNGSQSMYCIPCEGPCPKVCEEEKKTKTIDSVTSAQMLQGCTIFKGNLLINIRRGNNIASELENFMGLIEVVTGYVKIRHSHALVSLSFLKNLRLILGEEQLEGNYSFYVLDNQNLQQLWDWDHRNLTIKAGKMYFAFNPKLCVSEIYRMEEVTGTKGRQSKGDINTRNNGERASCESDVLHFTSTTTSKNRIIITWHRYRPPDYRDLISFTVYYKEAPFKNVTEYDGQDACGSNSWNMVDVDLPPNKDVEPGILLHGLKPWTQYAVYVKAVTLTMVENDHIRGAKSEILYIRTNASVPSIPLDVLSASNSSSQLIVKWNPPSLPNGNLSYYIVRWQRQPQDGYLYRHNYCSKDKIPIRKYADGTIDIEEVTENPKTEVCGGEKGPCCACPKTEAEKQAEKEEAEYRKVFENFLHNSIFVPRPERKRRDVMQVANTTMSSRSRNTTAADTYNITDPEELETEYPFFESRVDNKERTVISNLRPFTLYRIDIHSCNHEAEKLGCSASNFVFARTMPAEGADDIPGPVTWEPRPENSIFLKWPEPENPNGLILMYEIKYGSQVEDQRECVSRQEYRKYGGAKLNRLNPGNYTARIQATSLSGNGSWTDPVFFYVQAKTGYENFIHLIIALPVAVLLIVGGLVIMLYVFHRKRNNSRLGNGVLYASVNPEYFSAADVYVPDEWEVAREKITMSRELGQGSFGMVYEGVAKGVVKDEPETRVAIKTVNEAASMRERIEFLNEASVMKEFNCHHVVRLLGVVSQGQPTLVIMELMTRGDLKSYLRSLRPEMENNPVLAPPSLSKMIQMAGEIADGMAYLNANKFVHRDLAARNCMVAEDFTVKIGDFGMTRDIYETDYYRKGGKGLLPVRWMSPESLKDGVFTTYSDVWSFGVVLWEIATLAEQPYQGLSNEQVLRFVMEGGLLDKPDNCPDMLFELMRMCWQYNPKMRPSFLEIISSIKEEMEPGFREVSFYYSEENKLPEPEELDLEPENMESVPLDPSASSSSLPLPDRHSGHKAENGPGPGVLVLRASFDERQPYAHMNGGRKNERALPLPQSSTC

B1: vectorized Teprotumumab (secreted from HEK-293 cells transfected with teprotumumab plasmid construct (antibody, V domains shown)
VH: QVELVESGGGVVQPGRSQRLSCAASGFTFSSYGMHWVRQAPGKGLEWVAIIWFDGSSTYYADSVRGRFTISRDNSKNTLYLQMNSLRAEDTAVYFCARELGRRYFDLWGRGTLVSVSS
VL: EIVLTQSPATLSLSPGERATLSCRASQSVSSYLAWYQQKPGQAPRLLIYDASKRATGIPARFSGSGSGTDFTLTISSLEPEDFAVYYCQQRSKWPPWTFGQGTKVESKR
How did the “reduction in IGF-1R activation (IGF-1R phosphorylation) by IGF in HT-1080 cells, MSD Insulin Signaling Panel (Phospho Protein)” value turn out when B1 was run?
Its value is 4 fold.
